Assay results published in publication PMC10899662, “TopBP1 utilises a bipartite GINS binding mode to support genome replication” (Nature Communications, 2024).

Biological target: GINS (HIS-(3C)-Sld5, Psf1, Psf2, Psf3) for structural and fluorescence polarisation studies, Q9BRT9;Q14691;Q9Y248;Q9BRX5
Assay: fluorescence polarisation
Details: point at the highest concentration, 150 µM; parent: est. 180; read off a plot

With “fluorescently labelled GINI-core peptide (Ala478-Gly497), WT L490P; L491P” the response was 3 mP.
